The text below walks through data of article PMC3899036, “Subunit Positioning and Stator Filament Stiffness in Regulation and Power Transmission in the V1 Motor of the Manduca sexta V-ATPase^☆” (Journal of Molecular Biology, 2014).

Test [1] concerns the target recombinant His6-tagged V-ATPase subunit C (Manduca sexta) (UniProt Q9U5N1). The test is described as follows: SEC; V1 incubated with C-His6, Superose-6 column, 20 mM Tris-HCl, 100 mM NaCl, 10 mM KCl, 2 mM 2-mercaptoethanol, pH 8.0, 0.25 ml/min; fractions on SDS-PAGE with densitometry; apparent stoichiometry. (Size exclusion chromatography separates by hydrodynamic size, large species first.)

The target in test [2] is T1, Manduca sexta V-ATPase subunit B (Manduca sexta (tobacco hornworm), UniProt P31401 1-494).
T1 construct: V-ATPase subunit B, Manduca sexta; 56 kDa on SDS-PAGE; Seen as part of the V1 complex in the cryo-EM reconstruction; also called B subunits; source: endogenous, within V1 purified from Manduca sexta
Nature of the test: cryo-EM structure; V1 mixed with recombinant C for 1 h at 4 °C (1:5 V1:C molar ratio), Lacey grids, plunge-frozen; 20 Å reconstruction of V1(+C), homologous crystal structures fitted. As to conditions: both partners purified.

T1 sequence (P31401 whole entry): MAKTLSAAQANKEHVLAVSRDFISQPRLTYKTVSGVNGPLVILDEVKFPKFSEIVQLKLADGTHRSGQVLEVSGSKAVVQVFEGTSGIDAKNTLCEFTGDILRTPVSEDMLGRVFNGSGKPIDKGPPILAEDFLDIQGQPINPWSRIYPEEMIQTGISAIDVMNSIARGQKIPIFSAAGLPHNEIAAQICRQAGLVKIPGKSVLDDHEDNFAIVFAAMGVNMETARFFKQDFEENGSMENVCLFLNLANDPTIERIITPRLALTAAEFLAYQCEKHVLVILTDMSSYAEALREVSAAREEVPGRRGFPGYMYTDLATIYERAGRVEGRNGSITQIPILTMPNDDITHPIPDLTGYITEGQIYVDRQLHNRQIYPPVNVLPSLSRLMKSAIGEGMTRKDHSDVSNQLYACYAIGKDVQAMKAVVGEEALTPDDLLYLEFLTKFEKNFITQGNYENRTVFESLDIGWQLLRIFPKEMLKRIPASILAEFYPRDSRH
Chain of recombinant His6-tagged V-ATPase subunit C (Manduca sexta) (Q9U5N1 whole entry): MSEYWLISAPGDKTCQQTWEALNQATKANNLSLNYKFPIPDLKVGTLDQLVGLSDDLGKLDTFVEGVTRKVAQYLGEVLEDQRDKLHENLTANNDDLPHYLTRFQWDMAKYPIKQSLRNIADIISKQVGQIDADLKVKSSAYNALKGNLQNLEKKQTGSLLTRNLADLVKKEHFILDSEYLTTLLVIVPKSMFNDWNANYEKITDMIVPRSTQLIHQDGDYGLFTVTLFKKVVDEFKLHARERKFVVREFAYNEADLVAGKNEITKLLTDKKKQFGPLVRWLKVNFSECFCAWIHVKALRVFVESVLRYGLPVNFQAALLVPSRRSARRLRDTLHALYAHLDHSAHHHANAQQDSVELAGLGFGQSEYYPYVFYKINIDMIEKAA

Regarding “Manduca sexta V-ATPase V1 domain (deactivated, washed with 25% methanol to remove residual subunit C) (complex)”, the stoichiometry N (C per V1 (1 per H, 1 per 3 A)) in test [1] was found to be 1.

B1: Manduca sexta V-ATPase subunit E (natural protein, Manduca sexta (tobacco hornworm), UniProt P31402 1-226, looked up)
chain: MALSDADVQKQIKHMMAFIEQEANEKAEEIDAKAEEEFNIEKGRLVQQQRLKIMEYYEKKEKQVELQKKIQSSNMLNQARLKVLKVREDHVRNVLDEARKRLAEVPKDIKLYSDLLVTLIVQALFQLVEPTVTLRVRQADKALVESLLGRAQQDYKAKIKKDVVLKIDNENFLPPDTCGGIELIAAKGRIKISNTLESRLELIAQQLLPEIRNALFGRNPNRKFTD
notes: V-ATPase subunit E, Manduca sexta; 26 kDa on SDS-PAGE; Seen as part of the V1 complex in the cryo-EM reconstruction; also called subunit E of the E/G stator filaments S1-S3; source: endogenous, within V1 purified from Manduca sexta
Take B1: the binding result in test [2] was “binds”.
